Laboratory results taken from the supplement of paper PMC7125110.
± gives the standard error. Variants at the floor of the assay were thinned out.

B1: glmS ribozyme (parent)
chain: AUAAAAGCGCCAGAACUACAGAAAUGUAGUUGACGAGGAGGAGGUUUAUCGAAUUUUCGGCGGAUGCCUCCAAA

Tests used:
Settings in all cases: with glucosamine-6-phosphate
glucosamine-6-phosphate [1] = variants of: B1; experiment: self-cleavage kobs at 40 uM GlcN6P; higher = faster cleavage; RNA array
Procedure, shortened: (§1)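 Barcoded glmS ribozyme variants on sequenced MiSeq chips were transcribed in situ by E. coli RNA polymerase and tracked through a hybridised Cy3 probe at 37 °C. Glucosamine-6-phosphate (40 μM to 10 mM) in HEPES/KCl/Mg(OAc)2 buffer was flowed in, and tiles were imaged over ~14 h. Signals were normalised to baseline and to non-cleaving reference variants; per-tile medians were fit to one- or two-exponential decays to give kobs. kcat and KM came from weighted Michaelis–Menten fits across concentrations.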

glucosamine-6-phosphate [2] = variants of: B1; experiment: self-cleavage kobs at 160 uM GlcN6P; higher = faster cleavage; RNA array
Procedure, shortened: as §1

glucosamine-6-phosphate [3] = variants of: B1; experiment: self-cleavage kobs at 640 uM GlcN6P; higher = faster cleavage; RNA array
Procedure, shortened: as §1

glucosamine-6-phosphate [4] = variants of: B1; experiment: self-cleavage kobs at 10000 uM GlcN6P; higher = faster cleavage; RNA array
Procedure, shortened: as §1

glucosamine-6-phosphate [5] = variants of: B1; experiment: self-cleavage kobs at 2500 uM GlcN6P; higher = faster cleavage; RNA array
Procedure, shortened: as §1

Variant	self-cleavage kobs at 40 uM GlcN6P (glucosamine-6-phosphate [1])	self-cleavage kobs at 160 uM GlcN6P (glucosamine-6-phosphate [2])	self-cleavage kobs at 640 uM GlcN6P (glucosamine-6-phosphate [3])	self-cleavage kobs at 10000 uM GlcN6P (glucosamine-6-phosphate [4])	self-cleavage kobs at 2500 uM GlcN6P (glucosamine-6-phosphate [5])
A36U G66U	< 1e-05 s⁻¹	< 1e-05 s⁻¹	< 1e-05 s⁻¹	< 1e-05 s⁻¹	–
G9A C16U A42G C50G	0.000108 ± 4.9e-05 s⁻¹	–	–	–	–
C8U U69G	0.000157 ± 3.4e-05 s⁻¹	–	0.00216 ± 0.00095 s⁻¹	0.000167 ± 3.1e-05 s⁻¹	–
G7A A12C G51C A53G G66A	< 1e-05 s⁻¹	–	–	–	–
G29U G62C	< 1e-05 s⁻¹	–	< 1e-05 s⁻¹	< 1e-05 s⁻¹	< 1e-05 s⁻¹
A12U U57A G59C G60C	< 1e-05 s⁻¹	–	–	–	–
C11G A53C	< 1e-05 s⁻¹	< 1e-05 s⁻¹	< 1e-05 s⁻¹	< 1e-05 s⁻¹	< 1e-05 s⁻¹
C10U A39G C71A	< 1e-05 s⁻¹	–	–	–	–
C8G U47G C68A	< 1e-05 s⁻¹	–	–	–	< 1e-05 s⁻¹
C34G G44A G60C	< 1e-05 s⁻¹	–	–	< 1e-05 s⁻¹	< 1e-05 s⁻¹
A1C C11U A64G	8.55e-05 ± 2.5e-05 s⁻¹	–	–	0.00142 ± 0.00035 s⁻¹	–
A12C G59U C68G	< 1e-05 s⁻¹	–	–	–	–
G9U A64G	< 1e-05 s⁻¹	< 1e-05 s⁻¹	–	< 1e-05 s⁻¹	–
C16A C71U	5.08e-05 ± 8.3e-06 s⁻¹	0.000159 ± 3.6e-05 s⁻¹	0.000293 ± 3.5e-05 s⁻¹	0.00133 ± 0.00014 s⁻¹	0.000355 ± 5.3e-05 s⁻¹
G7C A33U G41A U56A C71U	< 1e-05 s⁻¹	–	–	–	–
A6U G32C G41U	< 1e-05 s⁻¹	–	–	–	–
U45C C58G	< 1e-05 s⁻¹	< 1e-05 s⁻¹	< 1e-05 s⁻¹	–	–
G37U U47A C68G	< 1e-05 s⁻¹	–	–	< 1e-05 s⁻¹	9e-05 ± 3.5e-05 s⁻¹
A6C G9C	< 1e-05 s⁻¹	< 1e-05 s⁻¹	< 1e-05 s⁻¹	< 1e-05 s⁻¹	< 1e-05 s⁻¹
A6G C11U G32C	< 1e-05 s⁻¹	–	–	–	–
G9A G60A	< 1e-05 s⁻¹	–	< 1e-05 s⁻¹	–	–
C10G A14U C34A U49G	< 1e-05 s⁻¹	–	–	–	–
A6C C11G U30G G35U C50G C58G	0.00011 ± 2.3e-05 s⁻¹	–	–	0.000175 ± 5.1e-05 s⁻¹	0.000242 ± 4.4e-05 s⁻¹
A48U A64C	< 1e-05 s⁻¹	< 1e-05 s⁻¹	< 1e-05 s⁻¹	–	–
C8U G29A G60U	< 1e-05 s⁻¹	–	< 1e-05 s⁻¹	< 1e-05 s⁻¹	–
C8A A33U G44A A64U	< 1e-05 s⁻¹	–	< 1e-05 s⁻¹	–	–

Variant	self-cleavage kobs at 40 uM GlcN6P (glucosamine-6-phosphate [1])	self-cleavage kobs at 160 uM GlcN6P (glucosamine-6-phosphate [2])	self-cleavage kobs at 640 uM GlcN6P (glucosamine-6-phosphate [3])	self-cleavage kobs at 10000 uM GlcN6P (glucosamine-6-phosphate [4])	self-cleavage kobs at 2500 uM GlcN6P (glucosamine-6-phosphate [5])
C11A C70U C71G	4.85e-05 ± 1.9e-05 s⁻¹	–	–	3.22e-05 ± 1.6e-05 s⁻¹	–
C34A U54C C61G	< 1e-05 s⁻¹	< 1e-05 s⁻¹	–	–	–
A36C U45A	< 1e-05 s⁻¹	< 1e-05 s⁻¹	–	< 1e-05 s⁻¹	–
G9A G62A	< 1e-05 s⁻¹	< 1e-05 s⁻¹	< 1e-05 s⁻¹	–	–
G40C U69G	< 1e-05 s⁻¹	–	< 1e-05 s⁻¹	< 1e-05 s⁻¹	–
G7A A48C G59A A64G	< 1e-05 s⁻¹	–	–	< 1e-05 s⁻¹	–
G40U G43U	< 1e-05 s⁻¹	< 1e-05 s⁻¹	< 1e-05 s⁻¹	< 1e-05 s⁻¹	–
C8G C68U	< 1e-05 s⁻¹	–	–	–	–
A12C A36C A48G C61U C70A	< 1e-05 s⁻¹	–	–	–	–
U30A C34U	< 1e-05 s⁻¹	< 1e-05 s⁻¹	< 1e-05 s⁻¹	–	< 1e-05 s⁻¹
G38C U45C U55C	< 1e-05 s⁻¹	–	–	–	< 1e-05 s⁻¹
U46G C61U	< 1e-05 s⁻¹	< 1e-05 s⁻¹	< 1e-05 s⁻¹	–	–
A6U C34U C58U	< 1e-05 s⁻¹	–	–	–	–
G41C G60U	< 1e-05 s⁻¹	< 1e-05 s⁻¹	< 1e-05 s⁻¹	–	< 1e-05 s⁻¹
G9A A42C C71A	< 1e-05 s⁻¹	< 1e-05 s⁻¹	< 1e-05 s⁻¹	< 1e-05 s⁻¹	< 1e-05 s⁻¹
G35U G59A	< 1e-05 s⁻¹	–	< 1e-05 s⁻¹	–	–
A52U C58G	< 1e-05 s⁻¹	–	< 1e-05 s⁻¹	< 1e-05 s⁻¹	–
A42G G59A	< 1e-05 s⁻¹	–	–	–	4.78e-05 ± 2e-05 s⁻¹
A6U A42G G43C	< 1e-05 s⁻¹	–	–	–	–
C11G G13A G32U	< 1e-05 s⁻¹	–	–	–	–
C34U G40C	< 1e-05 s⁻¹	–	< 1e-05 s⁻¹	< 1e-05 s⁻¹	–
C11G A42U	< 1e-05 s⁻¹	< 1e-05 s⁻¹	< 1e-05 s⁻¹	< 1e-05 s⁻¹	< 1e-05 s⁻¹
C11G A42G	< 1e-05 s⁻¹	< 1e-05 s⁻¹	< 1e-05 s⁻¹	–	–
C11G U31G	< 1e-05 s⁻¹	–	< 1e-05 s⁻¹	–	–
G41C G59U	< 1e-05 s⁻¹	–	< 1e-05 s⁻¹	< 1e-05 s⁻¹	< 1e-05 s⁻¹
